From patent publication US20140212436A1 (Xencor, published 2014)
One block for each binder: values may come before it.

Experiments:
[1] = biological target: T1, recombinant human FcγRIIb protein (human, UniProt P31994 46-217); experiment: Biacore, antibody captured on protein A
T1 construct: Bought; injected as analyte in Biacore; also called CD32b
T1 sequence (looked up): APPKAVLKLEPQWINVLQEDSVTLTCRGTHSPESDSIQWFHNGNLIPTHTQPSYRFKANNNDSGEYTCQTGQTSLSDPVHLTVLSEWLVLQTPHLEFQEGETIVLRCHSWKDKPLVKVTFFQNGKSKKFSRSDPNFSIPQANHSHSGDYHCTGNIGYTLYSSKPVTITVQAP
Procedure: (§1) Variants were tested for receptor affinity using Biacore technology, also referred to as Biacore herein, a surface plasmon resonance (SPR) based technology for studying biomolecular interactions in real time. SPR measurements were performed using a Biacore 3000 instrument (Biacore, Piscataway, N.J.). A […] (Pierce Biotechnology) CM5 biosensor chip (Biacore) was generated using a standard primary amine coupling protocol. All measurements were performed using HBS-EP buffer (10 mM HEPES pH 7.4, 0.15 M NaCl, 3 mM EDTA, 0.005% vol/vol surfactant P20, Biacore). Antibodies at 20 nM or 50 nM in HBS-EP buffer were immobilized on the protein A/G surface and FcγRs were injected. After each cycle, the surface was regenerated by injecting glycine buffer (10 mM, pH 1.5). Data were processed by zeroing time and response before the injection of FcγR and by subtracting appropriate nonspecific signals (response of reference channel and injection of running buffer). Kinetic analyses were performed by global fitting of binding data with a 1:1 Langmuir binding model using BIAevaluation software (Biacore).
(§2) DNA encoding the Fc region of IgE, which contains the binding site for the anti-IgE antibodies used, was synthesized (Blue Heron Biotechnologies) and subcloned into the pTT5 vector. […] SPR measurements were performed using the protein A/antibody capture method described above, except that analyte was either FcγRIIb or the Fc region of IgE. Data acquisition and fitting are as described above.

Fc region of IgE = biological target: T2, Fc region of IgE (UniProt P01854-1 105-428, limits assumed); experiment: Biacore, antibody captured on protein A, IgE Fc as analyte
T2 construct: domain: Fc region of IgE; also called IgE Fc
Procedure: as §1, §2

[2] = biological target: T1, recombinant human FcγRIIb protein; experiment: Biacore
Procedure: as §1
DNA encoding the Fc region of IgE, which contains the binding site for the anti-IgE antibodies used, was synthesized (Blue Heron Biotechnologies) and subcloned into the pTT5 vector. […]

T2 sequence (P01854 other isoform, or with tags, fused parts or gaps limits assumed): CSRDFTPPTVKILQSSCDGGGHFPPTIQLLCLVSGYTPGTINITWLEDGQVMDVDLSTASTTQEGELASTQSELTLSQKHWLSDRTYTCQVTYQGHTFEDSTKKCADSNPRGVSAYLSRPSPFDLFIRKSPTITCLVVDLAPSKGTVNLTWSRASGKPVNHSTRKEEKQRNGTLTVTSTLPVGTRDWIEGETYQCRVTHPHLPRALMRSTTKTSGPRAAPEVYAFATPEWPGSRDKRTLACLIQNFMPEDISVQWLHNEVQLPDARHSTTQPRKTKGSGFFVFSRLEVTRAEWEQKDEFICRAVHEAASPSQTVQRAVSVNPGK

Kd [1]: 2000 nM | Kd (Fc region of IgE): 0.061 nM | Fold [2]: 1
B1: H1L1_MaE11 (novel humanized version of MaE11, anti-IgE antibody) (antibody)
heavy: not shown
light: DIQLTQSPSSLSASVGDRVTITCRASQSVDYDGDSYMNWYQQKPGQPPKLLIYAASYLGSEIPARFSGSGSGTDFTLTISSLQPEDFATYYCQQSHEDPYTFGAGTKLEIKRTVAAPSVFIFPPSDEQLKSGTASVVCLLNNFYPREAKVQWKVDNALQSGNSQESVTEQDSKDSTYSLSSTLTLSKADYEKHKVYACEVTHQGLSSPVTKSFNRGEC
notes: copies: 2 + 2

Kd [1]: 5.6 nM | Kd (Fc region of IgE): 0.063 nM | Fold [2]: 366
B2: MaE11_H1L1_IgG1_S267E/L328F (antibody)
heavy: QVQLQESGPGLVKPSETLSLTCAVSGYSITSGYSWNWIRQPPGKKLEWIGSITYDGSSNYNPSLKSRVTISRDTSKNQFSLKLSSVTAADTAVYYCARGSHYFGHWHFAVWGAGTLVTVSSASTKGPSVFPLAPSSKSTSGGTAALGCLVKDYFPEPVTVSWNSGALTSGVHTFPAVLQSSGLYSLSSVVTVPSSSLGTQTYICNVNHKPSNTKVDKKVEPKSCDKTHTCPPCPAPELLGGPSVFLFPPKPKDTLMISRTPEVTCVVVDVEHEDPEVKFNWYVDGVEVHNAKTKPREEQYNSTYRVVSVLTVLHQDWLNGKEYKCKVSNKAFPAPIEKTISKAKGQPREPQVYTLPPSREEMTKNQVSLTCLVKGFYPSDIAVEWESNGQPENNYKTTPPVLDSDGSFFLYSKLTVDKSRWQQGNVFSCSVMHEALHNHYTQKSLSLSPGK
light: B1 light
notes: anti-IgE

binding result [1]: no binding | Kd (Fc region of IgE): 0.064 nM
B3: MaE11_H1L1_IgG1_G236R/L328R (antibody)
heavy: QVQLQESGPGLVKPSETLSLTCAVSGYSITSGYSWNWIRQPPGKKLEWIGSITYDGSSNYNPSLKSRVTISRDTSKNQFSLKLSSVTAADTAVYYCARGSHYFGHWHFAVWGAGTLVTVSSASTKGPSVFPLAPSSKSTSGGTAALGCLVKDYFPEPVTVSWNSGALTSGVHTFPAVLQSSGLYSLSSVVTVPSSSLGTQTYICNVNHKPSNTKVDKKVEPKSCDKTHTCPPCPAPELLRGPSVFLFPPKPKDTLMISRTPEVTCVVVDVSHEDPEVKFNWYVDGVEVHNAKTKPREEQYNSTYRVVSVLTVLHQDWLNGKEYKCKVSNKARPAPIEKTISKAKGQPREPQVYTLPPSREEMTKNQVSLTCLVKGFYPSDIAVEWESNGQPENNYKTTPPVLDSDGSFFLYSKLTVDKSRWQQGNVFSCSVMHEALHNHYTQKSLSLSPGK
light: B1 light
notes: anti-IgE; also called H1L1 MaE11 Fc-KO
